Patent US20220275027A1 (TRUSTEES OF PRINCETON UNIVERSITY, published 2022)
Where no end group is shown, it is not given here.

T1: Fl-Cat^N (fluorescein labeled Cat^N peptide) (N-terminus capped with 5(6)-carboxyfluorescein)
T1 construct: Made by Fmoc solid phase synthesis; also called FI-Cat^N; Cat^N containing an N-terminal fluorescein
T1 peptide: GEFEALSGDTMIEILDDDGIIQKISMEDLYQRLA

B1: Cat^N (EFE-Cat^N, cleaved from SUMO-Cat^N) (peptide)
peptide: EFEALSGDTMIEILDDDGIIQKISMEDLYQRLA
modifications: also: 15N,13C isotope-labelled form used in NMR
notes: the range 120-152 (EFEALSG...QRLA) is counted by me from that statement; Isotope-labelled (15N, 13C) in NMR; also called 15N,13C Cat^N
B2: FLAG-Cat^C (cleaved from SUMO-Flag-Cat^C) (other)
chain: DYKDDDDKMFKLNTKNIKVLTPSGFKSFSGIQKVYKPFYHHIIFDDGSEIKCSDNHSFGKDKIKASTIKVGDYLQGKKVLYNEIVEEGIYLYDLLNVGEDNLYYTNGIVSHACESRGK
notes: also called 15N,13C FLAG-Cat^C
B3: SUMO-Flag-Cat^C (other)
chain: MGSSHHHHHHGSGLVPRGSASMSDSEVNQEAKPEVKPEVKPETHINLKVSDGSSEIFFKIKKTTPLRRLMEAFAKRQGKEMDSLRFLYDGIRIQADQTPEDLDMEDNDIIEAHREQIGGDYKDDDDKMFKLNTKNIKVLTPSGFKSFSGIQKVYKPFYHHIIFDDGSEIKCSDNHSFGKDKIKASTIKVGDYLQGKKVLYNEIVEEGIYLYDLLNVGEDNLYYTNGIVSHACESRGK
notes: also called SUMO-Flag-Cats

Assays:
[1] = target: B2; assay: NMR: 1H-15N HSQC, heteronuclear NOE, spin-spin relaxation, Cα-Cβ chemical shift perturbation
[2] = target: B1; assay: circular dichroism and analytical size exclusion chromatography of Cat^N, Cat^C and the complex
[3] = target: T1, Fl-Cat^N (fluorescein labeled Cat^N …); assay: one site binding fit of steady-state fluorescence anisotropy, 500 pM Fl-Cat^N, 500 mM NaCl (fit value below the probe concentration)
[4] = target: T1, Fl-Cat^N (fluorescein labeled Cat^N …); assay: kon1: slope of kobs1 against Cat^C concentration, stopped-flow fluorescence anisotropy, 100 mM NaCl
[5] = target: T1, Fl-Cat^N (fluorescein labeled Cat^N …); assay: one site binding fit of steady-state fluorescence anisotropy, 500 pM Fl-Cat^N, 100 mM NaCl (fit value below the probe concentration)
[6] = target: T1, Fl-Cat^N (fluorescein labeled Cat^N …); assay: steady-state fluorescence anisotropy, 500 pM Fl-Cat^N, both low (100 mM NaCl) and high (500 mM NaCl) salt
[7] = target: T1, Fl-Cat^N (fluorescein labeled Cat^N …); assay: kon2: slope of kobs2 against Cat^C concentration, stopped-flow fluorescence anisotropy, 500 mM NaCl
[8] = target: T1, Fl-Cat^N (fluorescein labeled Cat^N …); assay: kon2: slope of kobs2 against Cat^C concentration, stopped-flow fluorescence anisotropy, 100 mM NaCl
[9] = target: T1, Fl-Cat^N (fluorescein labeled Cat^N …); assay: kon1: slope of kobs1 against Cat^C concentration, stopped-flow fluorescence anisotropy, 500 mM NaCl

Question: Does B1 bind [1]?
Answer: Result: binds

Question: Does B2 bind [2]?
Answer: Result: binds

Question: Which Kd [3] does the source give for B3 here?
Answer: The Kd was 0.0804 nM.

Question: And the kon [4]?
Answer: Its kon is 2.8e+06 M⁻¹ s⁻¹.

Question: What about the Kd [5] of the same binder?
Answer: The Kd was 0.0339 nM.

Question: What about the Kd [6] of the same binder?
Answer: Its Kd is less than 0.5 nM.

Question: What about the kon [7] of the same binder?
Answer: The kon was 180000 M⁻¹ s⁻¹.

Question: What about the kon [8] of the same binder?
Answer: Its kon is 160000 M⁻¹ s⁻¹.

Question: What about the kon [9] of the same binder?
Answer: The kon was 2.34e+06 M⁻¹ s⁻¹.
